From the supplement of paper PMC9170038

Test system: MS2 coat protein
Assay: apparent KD of MS2 coat protein; designed switch direction (-1 OFF switch, 1 ON switch): 1; higher = weaker reporter binding
Outline: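 Stalled E. coli RNA polymerase transcribed designed RNA switches on Illumina chips, which were then titrated with SNAP-549-labelled MS2 coat protein, doubling from 0.7 or 1.5 nM to 3 µM. Steps lasted from 0.8–1.5 h at the lowest concentration to 10–20 min at the highest. The apparent KD is each design's median over clusters of curve-fitted normalised fluorescence.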

[1] = input ligand: microRNA oligo, concentration not stated
[2] = Eterna round: R95, input ligand: FMN 200 uM
[3] = Eterna round: R95, input ligand: microRNA oligo, concentration not stated
[4] = Eterna round: R95, input ligand: none

Sequence | apparent KD of MS2 coat protein (input ligand: FMN 200 uM) [nM] | apparent KD of MS2 coat protein [1] [nM] | apparent KD of MS2 coat protein (input ligand: none) [nM] | apparent KD of MS2 coat protein [2] [nM] | apparent KD of MS2 coat protein [3] [nM] | apparent KD of MS2 coat protein [4] [nM]
GUUACAUGAGGAUCACCCAUGUAUGUGUGGGAGUAAGUGUCUUAGGAUAUCUGUUAUUUAACUUAAGAGAAGGAAGAUUGUUGU [JMF's solution 43] (Eterna round: R96, puzzle: Same State NG 3) | 108 | 65.4 | 105 | – | – | –
UAGGAGAGUAGAACAUGAGGAUCACCCAUGUAACCUCAUGUAUAGGAUAUGUUAAGAGUAGUAGAACAGAAGGAUAAGUAGGAU [Default title] (Eterna round: R96, puzzle: Same State NG 3) | 694 | 494 | 655 | – | – | –
UGUUGUAUUACAGGAUAUCUAUGAUUUAUAUUUAGAGAAGGGUAUUCACAUGAGGAUCACCCAUGUAUAUACGAGGAAGUUGUG [JMF's solution 61] (Eterna round: R96, puzzle: Same State NG 1) | – | 33.6 | – | – | – | –
UAGUGAUUGCAAGGAUAUGCUAGUUUUUAUUUGUGUUUGAUAACAAACAUGAGGAUCACCCAUGUGCAGAAGGUGCAAGAUAUG [JR_SSNG2_Sub078] (Eterna round: R96, puzzle: Same State NG 2) | 193 | 361 | 647 | – | – | –
AGUCAAGACAUGAGGAUCACCCAUGUUGGGAACAUGGAGGACGAGGAUAUGUGUCGAUAUGUGACGUAGAAGGCGUCAGACAAA [Eternabot solution 33] (Eterna round: R96, puzzle: Same State NG 3) | 189 | 224 | 419 | – | – | –
GCUACCAUUGAAGCCAACAUGAGGAUCACCCAUGUAUGUUGGUAGGAUAUCGAUUGCAAAGCGAUCGAGAAGGGCUAAGGUAGC [Mat - Same State NG 3 - JL Mod - D81] (Eterna round: R96, puzzle: Same State NG 3) | 81.2 | 57.4 | 66.8 | – | – | –
UAAAUACAUGAGGAUCACCCAUGUCAAAAGACAUGAGGAUAUGUACAGACUUCGGUCUGUACAGAAGGCAUGAAAA [salish99_ss1_r3_095] (Eterna round: R96, puzzle: Same State 1) | – | 397 | – | – | – | –
GCGAGCGUACUUGCAACAUGAGGAUCACCCAUGUUAACUGGACAGGAUAUGGUACCGUUUCGGUACCAGAAGGGUUUAUCAUGU [JL SSNG3 3.66] (Eterna round: R96, puzzle: Same State NG 3) | 92.3 | 92.8 | 116 | – | – | –
GUAGCAUACCGAGGAUAUUCAUAUUAUAAACAUGAGGAUCACCCAUGUGGCCGAUUACGGCCUUGGGAGAAGGCGGAAUGCUAC [Xeonanis - 20 Mod17] (Eterna round: R96, puzzle: Same State NG 2) | 44.6 | 641 | 909 | – | – | –
UACAAUCUAUCUGAGGAUAUCAUGAUUCUAACAUGAGGAUCACCCAUGUGCAGGAAAACUGCAUAUGAGAAGGCAGAUAGAUUGU [salish99_ss2_r3_072] (puzzle: Same State 2) | – | – | – | 67.7 | 33.3 | 148
AAAAAACAUGAGGAUCACCCAUGUCUUUUGACAUGAGGAUAUGUACAGACUUCGGUCUGUACAGAAGGCAUGUAAA [SS1 - 1028] (Eterna round: R96, puzzle: Same State 1) | – | 336 | – | – | – | –
AUCCUACAUGAGGAUCACCCAUGUGACGCCUCGAUAGGAUAUGCGUGUGCCUUGGCGCAUGCAGAAGGAUUGUAGC [JL Aveso mod 6] (puzzle: Same State 1) | – | – | – | – | 30.5 | –
GGUCCAGCCUGAGCUGGACAAAAGCAUGUACAUGAGGAUCACCCAUGUCAUGUACAAGCUUUUUGCUCGUCAGAAAG [Mat - hsa-mir-208a - 98] (puzzle: Sensor for hsa-mir-208a) | – | – | – | 62.7 | 16.9 | 89.8
AGCCGAGACACAGGAUAUAGAUGUUUACAUGAGGAUCACCCAUGUAGCAACACGUGGUAGUGAUUCUAGAAGGGUGCUCGGCGC [Omei SS(NG)2 Cv11] (Eterna round: R96, puzzle: Same State NG 2) | 36.3 | 116 | 167 | – | – | –
AACAAUCUAUCUGAGGAUAUCAUGAAAAAAACAUGAGGAUCACCCAUGUGCAGGAAAACUGCAUAUGAGAAGGCAGAUAGAUUGC [salish99_SS2_r3_004] (Eterna round: R96, puzzle: Same State 2) | – | 504 | – | – | – | –
UGGCUCAGACGAGGAUAUACGUGGUCACAUGAGGAUCACCCAUGUCUCGAGCUUCGGCUCGAGGCGUAGAAGGUGUCUGAGCCA [SSNG2/6-C2] (Eterna round: R96, puzzle: Same State NG 2) | 192 | 609 | 575 | – | – | –

Sequence | apparent KD of MS2 coat protein (input ligand: FMN 200 uM) [nM] | apparent KD of MS2 coat protein [1] [nM] | apparent KD of MS2 coat protein (input ligand: none) [nM] | apparent KD of MS2 coat protein [2] [nM] | apparent KD of MS2 coat protein [3] [nM] | apparent KD of MS2 coat protein [4] [nM]
GCUAGAAUUAACGCCUACAUGAGGAUCACCCAUGUAUGUAGGCAGGAUAUCGUUUGCAAAGCAAACGAGAAGGGCCUUACUAGC [Mat - Same State NG 3 - JL Mod - D31] (Eterna round: R96, puzzle: Same State NG 3) | 27.3 | 31 | 46.5 | – | – | –
AUUACUAACAUAGGAUAUCAUGCGAAAAUUGCGUGAGAAGGGUGGACGCUGUCAUUCUCGGAGGACAUGAGGAUCACCCAUGUC [SameState NG1 #71] (Eterna round: R96, puzzle: Same State NG 1) | 118 | 103 | 90.7 | – | – | –
UGGCUCAGACGAGGAUAUAUGUCUCGAGCUUCGGCUCGAGACAUGAGGAUCACCCAUGUAAUAACAUAGAAGGUGUCUGAGCCU [SSNG2/1-C3] (Eterna round: R96, puzzle: Same State NG 2) | 42.9 | 226 | 388 | – | – | –
GGAAAGAGGUAAGGAUAUGCAUGGCGGAGACAUGAGGAUCACCCAUGUUGGAGACGAAAUCUAGGGUAGAAGGUACAAGGAAGG [AK SSNG2-V2-11] (Eterna round: R96, puzzle: Same State NG 2) | 133 | 44.6 | 128 | – | – | –
UGCCUGAGUCGAGGAUAUUAUGGAUCCUCUAAUACAUGAGGAUCACCCAUGUAAUUAAUUAUACAUGAGAAGGUGACUCAGGCU [SSNG2/12-B1] (Eterna round: R96, puzzle: Same State NG 2) | – | 293 | – | – | – | –
GGUCCAUCAUGAGGAUAUGGCACCUUAUUGGUGCCAGAAGGCAUGUAAAUUAUAAUAAAUACAUGAGGAUCACCCAUGUGGACC [Eli NG1ss - 98] (Eterna round: R96, puzzle: Same State NG 1) | 1230 | 80.2 | 407 | – | – | –
UUAAUAAUGUAAGGAUAUACAUGAGGAUUUCUCGUAGAAGGUACAGGACAUGAGGAUCACCCAUGUAUCGCUCAGAAGAGCGUA [Mat - Same State NG 1 - JL mod - D24] (Eterna round: R96, puzzle: Same State NG 1) | 1400 | 715 | 1750 | – | – | –
AAGGGCGGAAACAACAUGAGGAUCACCCAUGUUGCCGAAAGGCAGGAUAUCCGGCGAAAGCAGAAGGAGAAGGGUCAAGAACCA [AK SSNG3-V2-42.1] (Eterna round: R96, puzzle: Same State NG 3) | 39 | 16 | 22.5 | – | – | –
GGUCCAGCCUGAGCUGGACGAUAGUAUGUACAUGAGGAUCACCCAUGUCAUGUAUAAGUAUUUUGUUUGUCUUGAAA [Sensorship 3 - Jieux - Sensor for hsa-mir-208a] (puzzle: Sensor for hsa-mir-208a) | – | – | – | 22.1 | 14.7 | 19.3
UUUAGUUGCGGGCAGGAUAUGUAUUAAAAUACAUGAGGAUCACCCAUGUGAGACCAUAAAGGUCUACAGAAGGGCCAAUCGCGAC [Laonerce - 19] (puzzle: Same State 2) | – | – | – | 14.9 | 89 | 88.1
CUUGGGUGGCUGGAGGAUAUUCGAGUGGUAACAUGAGGAUCACCCAUGUGUCGCGCGGUACACGAGGAGAAGGCUGGCGGCCGGC (puzzle: Same State 2) | – | – | – | – | 84.8 | –
AAUAAAGUCAGUAAGGAUAUCCAAAUGGCGACAUGAGGAUCACCCAUGUAAGAAACCCGACAUCGGGAGAAGGUACAUGACGAUG [Enlaorle] (puzzle: Same State 2) | – | – | – | 87.9 | 124 | 127
AUUAUGAAUGCAGGAUAUGAUUAACAUGAGGAUCACCCAUGUGGUGUUGUGAGUAAGGAGAGUGAUCAGAAGGGCAUUUUUUUU [JMF's solution 25] (Eterna round: R96, puzzle: Same State NG 2) | – | 465 | – | – | – | –
CCUUGUAGCGGAGGAUAUGGGCCUCACUCAGUCAAAGAGUGAGAAACAUGAGGAUCACCCAUGUCCCAGAAGGCCGCUGCAUGG [Ridizaer] (Eterna round: R96, puzzle: Same State NG 2) | 12.1 | 13.8 | 19.1 | – | – | –
GCUAGAAAUAAAGCCAACAUGAGGAUCACCCAUGUAUGUUGGCAGGAUAUCGUAUGCAAAGCAUACGAGAAGGGCCAAACUAGC [Mat - Same State NG 3 - JL Mod - D3] (Eterna round: R96, puzzle: Same State NG 3) | 37.3 | 85 | 117 | – | – | –
AGUCCAGCAUAAGCUGGACAAAAGCAUGUACAUGAGGAUCACCCAUGUUCAUGUACAAGCUUUUUGCAAGUCAAAAU [Mat - hsa-mir-208a - Mod of JL - 82] (puzzle: Sensor for hsa-mir-208a) | – | – | – | 374 | 18 | 734
